# Source: the DeepSol protein solubility set
# Assay: soluble on expression in E. coli; label from the status in PepcDB or PDB records
row,Sequence,soluble on expression in E. coli
1,SNAIMAKTAKVAVSQIVEHPALDATRQGLLDGLKAKGYEEGKNLEFDYKTAQGNPAIAVQIARQFVGENPDVLVGIATPTAQALVSATKTIPIVFTAVTDPVGAKLVKQLEQPGKNVTGLSDLSPVEQHVELIKEILPNVKSIGVVYNPGEANAVSLMELLKLSAAKHGIKLVEATALKSADVQSATQAIAEKSDVIYALIDNTVASAIEGMIVAANQAKTPVFGAATSYVERGAIASLGFDYYQIGVQTADYVAAILEGKEPGSLDVQVAKGSDLVINKTAAEQLGITIPEAVLARATSTK,soluble
2,MFKRVFNLRFISNFSRRPTSSPKLPKLIAITGGTSLGIAFFGKTEENKNLDSGNGQLIDGKPKNFDLIVRNSDELYDNYLIDNCYNILKKFENSNCSELLWRLARVVCEKGKLSKDQNQRKELILEAYGIVKKALDNEPKNGCFGAHKWYAILLDYVGEIEGNKSRIEKSFQVRKHLEKALSIFENDPTTWHILGVWHFSFANMGYATRMVAKAIFATPPASTYQEALHYFLKAEQISPGFYSTNTYYIGEVYEQLGQKAEALDAFKQSFKMPVVTSDDAVIHKKAYEKLKKYGVKDTEVV,not soluble
3,MGSDKIHHHHHHPLGSPEAGDISEERQAFLRLTAVYSVMKDFRYTWSMQCFGDVLSNDATYSGSSNDAQTFTLLENYQYQADHTEILNKYRYSYQCINKANLFIRDMEMADDALFSKYDKEQMIGEAKFIRAYTYFELVKTFGGVPCYTGVLDLDHERLGRASVEEIYSVIEQDLNDAVSVLPKKSEVANYESSYAGRITKGAAIAMQTRIYLYEKKYDEVKKAFEKFQNECGGEYSLVAPEDYTWQFSLDGEHCSSSILEVNMYNSSTQSSYNVNNGNRHVLMSMPRNMTIGFGCAQPTQALADAYDAEGDVIRKKTTLLSTEEAIEIETAAKGDVAPVTDDRTGWYNRKLYLAPGQREENRGNNQPTNLRLIRLAEVYLNYAEACYFSGDIANAQKYLNEVRSHVNLAPKNHTGSQLFEDIMNERHLEFGMEGFRFFDVVRVGWGEKVFNGTKKAEFGAKTPFSAGAEVLPIPQTEIDISDGLITN,not soluble
4,MASETIHFSFANADVYIVARSPNNQNGTGDDTMSYSAKSFSALINAMRADGITRLEQLARQPFRNAQGFWSAEVKK,not soluble
5,MSKEGDILKPEEETMEFPEGDKVKVILSKEDFEASLKEAGERLVAVDFSATWCGPCRTIRPFFHALSVKHEDVVFLEVDADNCEEVVRECAIMCVPTFQFYKKEEKVDELCGALKEKLEAVIAELK,soluble
6,MSLKNREWYKDAVFYEVLVRAFYDPEGNGVGSLKGLTEKLDYIQWLGVDCIWIPPFYDSPLRDGGYDIRNFREILPEFGTVDDFVELIDHAHRRGLRVITDLVMNHTSDQHAWFQESRRDPTGPYGDFYVWSDDPTLYNEARIIFVDTEESNWTYDPVRGQYFWHRFFSHQPDLNYDNPAVQEAMLDVLRFWLDLGLDGFRLDAVPYLFEREGTNGENLKETHDFLKLCRSVIEKEYPGRILLAEANQWPQDVVEYFGEKDKGDECHMAFHFPLMPRIFMGVRQGSRTPISEILANTPEIPKTAQWGIFLRNHDELTLEMVSDEERSYMYSQFAMEPRMRANVGIRRRLSPLLEGDRNQLELLHGLLLSLPGSPVLYYGDEIGMGDNIWLHDRDGVRTPMQWSNDRNGGFSKADPERLYLPAIQNDQYGYAQVNVESQLNRENSLLRWLRNQILIRKQYRAFGAGTYREVSSTNESVLTFLREHKGQTILCVNNMSKYPQAVSLDLREFAGHTPREMSGGQLFPTIAEREWIVTLAPHGFFWFDLTADEKDDMEEGHHHHHH,soluble
7,AHHHHHHGSRYVKLPKENTYEFLERLKDWGKLYAPVKISDKFYDFREIDDVRKIEFHYNRTIMPPKKFFFKPREKLFEFDISKPEYREVIEEVEPFIIFGVHACDIYGLKILDTVYLDEFPDKYYKVRREKGIIIGISCMPDEYCFCNLRETDFADDGFDLFFHELPDGWLVRVGTPTGHRLVDKNIKLFEEVTDKDICAFRDFEKRRQQAFKYHEDWGNLRYLLELEMEHPMWDEEADKCLACGICNTTCPTCRCYEVQDIVNLDGVTGYRERRWDSCQFRSHGLVAGGHNFRPTKKDRFRNRYLCKNAYNEKLGLSYCVGCGRCTAFCPANISFVGNLRRILGLEENKCPPTVSEEIPKRGFAYSSNIRGDGV,not soluble
8,MKNVKTIAAAVVLATMTFGASAAEYVSPSQAQNLEKAGVVTATAQDLSSLQSQLAAKAEKAGAKAYTITSATGNDQLRGSAVIFN,not soluble
9,MSLKKDYGSQEDFTQVWNTTMKGLKCCGFTNYTDFEDSPYFKENSAFPPFCCNDNVTNTANETCTKQKAHDQKVEGCFNQLLYDIRTNAVTVGEGHHHHHH,soluble
10,MASKPLQFVVVERKLNVGKNAGKVMQIARPTGRHRVDFRSFCERVSKSTTFNRQEVEAVLNYATEIAKDIVSNGDIVEFGDLGTLMPSFKSKAVEQGVKFNANVHIEKPVVLFQPSKKYFTLTDVSYEQTTARPKKGTKPAPKPDTGSGGNSGEGI,not soluble
11,MLKFFAALLFAVATMAQAQDNTLHTDLPLDYLAQANVETPDRPLVIFIHGYGSNAADLFGLKEHLPAGFNYLSVQAPVELQADSYKWFTQKKGGTDYDGVTEDLKSSGKRLTDFITQATEKFRTQPGKVFLVGFSQGAMMSYEVALRQPTLVGGFAALSGRLLPVVKSEVNASDDLKALKVFIGHGVQDRQVAYASGPQAEATLKSLGLTPQFHGYEGLGHSINEAEVVDLANWLQQSSR,not soluble
12,MSSTLREASKDTLQAKDKTYHYYSLPLAAKSLGDIARLPKSLKVLLENLLRWQDGESVTDEDIQALAGWLKNAHADREIAWRPARVLMQDFTGVPAVVDLAAMREAVKRLGGDTSKVNPLSPVDLVIDHSVTVDHFGDDDAFEENVRLEMERNHERYMFLKWGKQAFSRFSVVPPGTGICHQVNLEYLGKAVWSELQDGEWIAYPDSLVGTDSHTTMINGLGVLGWGVGGIEAEAAMLGQPVSMLIPDVVGFKLTGKLREGITATDLVLTVTQMLRKHGVVGKFVEFYGDGLDSLPLADRATIANMSPEYGATCGFFPIDAITLEYMRLSGRSDDLVELVETYAKAQGMWRNPGDEPVFTSTLELDMGDVEASLAGPKRPQDRVALGDVPKAFAASAELELNTAQRDRQPVDYTMNGQPYQLPDGAVVIAAITSCTNTSNPSVLMAAGLLAKKAVTLGLKRQPWVKASLAPGSKVVSDYLAQAKLTPYLDELGFNLVGYGCTTCIGNSGPLPEPIETAIKKGDLTVGAVLSGNRNFEGRIHPLVKTNWLASPPLVVAYALAGNMNINLATDPLGYDRKGDPVYLKDIWPSAQEIARAVELVSSDMFRKEYAEVFEGTEEWKSIQVESSDTYGWQSDSTYIRLSPFFDEMQAQPAPVKDIHGARILAMLGDSVTTDHISPAGSIKPDSPAGRYLQNHGVERKDFNSYGSRRGNHEVMMRGTFANIRIRNEMLPGVEGGMTRHLPGTEAMSIYDAAMLYQQEKTPLAVIAGKEYGSGSSRDWAAKGPRLLGIRVVIAESFERIHRSNLIGMGILPLEFPQGVTRKTLGLTGEEVIDIADLQNLRPGATIPVTLTRSDGSKETVPCRCRIDTATELTYYQNDGILHYVIRNMLN,not soluble
13,MAADYTHFIHRQHAPPEVCLSAFSGHNDALDFPDSEGSPVSQSLIAALQNPALFPHPVEGFQVIETHISWVLLTGPFAYKVKKPVNFGFLDFTSLDAREHFCGEELRLNQRLTEDLYLEVLPITGSAEAPVLGGDGPAIEYVLKMRQFPQSQLLSTLQANSELTTAHIDEMARQIAHFHLNAPKVPAEHEAGTPESVMAPVRQNFEQIRPFLSDKADLQQLEALEAWAETSFERLKPLLAQRKSEGFIRECHGDIHLGNATLIDGKVVIFDCIEFNEPFRFTDVYADTGFLAMDLEDRGLKSLARRFISQYLELTGDYQGLELLNFYKAYRALVRAKVSLFSMPAEATPVQRATTLRQYRNYANLAESYSTIPSRFLAITSGISAVGKSRVAMRLVEALGAVRLRSDVERKRLFGEQQVPNDPHAGIYSSEASSATYARLHEIAETILRAGFPVVIDATYLKRAQRDAAAKVAEATGTPCLIIDCNAPEAVVASWLAQRQADQNDPSDATLEVIANQQATREALTDEELLRSKRIETNESGSLDALVANIRQRLPGLLEHHHHHH,not soluble
14,AKVQAYVSDEIVYKINKIVERRRAEGAKSTDVSFSSISTMLLELGLRVYEAQMER,soluble
15,MGSDKIHHHHHHGCSFLIKEVNVKQENEAGEMVAYIKAGEIATFTFSGEINIDGDASNETFIVGFLAPRSWNVRQNATVTYREDRYETEVDHKMTVIPDTEQPANYKGMSWSAALKKKYGVRGNVLNDMEWIAFKSDNYPSVNGTIHYTVTIKCNSGKSNLKFRPSFFINHSSDGIGGDEAHYSVKDADDCFEVVEGSGTVIDFCSTHYYQIEPLSALQDDYVTFTFQGDINTNELIKAENVYIEATAYTIEGKIYTVNEKSAKTLMKRETKLPRYNVTLWPGGFFNIPDGETISRIEYIFTNEDGTVSISQSDDSRDNEGEEVEEGIKEPFVFEFQCE,not soluble
16,MKTKYVVIIQCDMAKNRCSGMRCTNAFYEKTDAFENYAKDTKYISFTCGGCSGKVVSSKLANFSRWLKKYDCIKKDEVTIHLSSCMSTDNSHYDRCPNIDYIKQIINKKGYTNIVEGSIFSKKSEKLRDEGIYKKYQ,not soluble
17,MTNVLILGAAGQIARLAEQQFLANTTDNLTLYLRNSSRVADQQSDRVTIIDGDTTDEAKLTQAMTGQDVVYANLAGQNIKQQAETVLKAMHTSGLKRLIWISTLGIYDEVPGKFGQWNNATLGSYLTRYYAAAEVLENSDLDYTIIRPAWLTNKDEIDYEITQRHDPFKGTEVSRKSIAALVVKLTQDPTSNIRTSLGVNKPNTDGDKPAWY,not soluble
18,MAHHHHHHMFGTTRVWRNTFLTKSVATPPISVIRTGPRWWADPERMVRQKLMYFTLGVDQLPLRRTAVIQKDLHRFHMCKPPPRIGDTTGYKRSRAAQLTTWYRRIQYQEYHLQHLFTRHVWGLVRAYPGNTTKIQGKADDGYVGYDSVPYHRYNRTPLPFPAREIYGRRE,not soluble
19,MKFLNQHELTKLLALLDLDHGLDWDYFLLLIAKTGLRFGEALGVTPMDFDMAKLTLTINKTWDYKSATGSFAETKNTASVRKVPLDWQVAMQFAAQIKSLPQDKPIFVTDGQRVYNETANDILERKCKRASIPVISIHGLRHTHASLLLYAGVSVGSVARRLGHANMSTTQKTYLHILEHHHHHH,soluble
20,MSFLSNSLNRISFNSFSNMHSLLSSKFQEHYNDIYDWNGNIENIYKANTFISIGYKLLYPLGVLEANFDKEKLKKFLFRICSYYNDIPYHTSLHAAQVAHFSKSMLFMLDMNHKISAIDEFCLHISSLCHDTGHPGLNNYFLINSENNLALTYNDNSVLENYHCSLLFKTLKNPNYNIFEHYPYHIFISCKKNIIKAILSTDMKNHFEYISDFRTSKEFIDYDNLSNDQIWQIFCLILKASDIGHSTLEWNKHLEWTLKINEEFYLQGLLEKSLNIQNSFLCDINTMNKLALSQIDFLKHLCIPLFNELNYICKNNDVYTHCIQPIENNIERWESHKNDNQNLGLHEKYKEENLLSKLELIKFE,not soluble
21,AEIDTSSIVEMVQGAEDAPVEVIEYASYTCPHCAAFHEGPYKKLKADFIDTGKVRFIYREVYFDRYGLWASMVARCAGPEKFFGISDLIYKGQAEWSRAGGPAEIAEELRKIGRLAGIENDKLEACLGDATKAQTLVAWYQEHATRDDINSTPSFMINGKKVENQAYDGFKALIEAELGN,not soluble
22,GTVEGVVGVTREVTEQRKHEMEIARQRSILKAQQEAVIDGILVVDEDDTIVSYNERFVDMWDIPRDIVERGDEEIALEWAMEQVAEPEAFRVDVEALYEDPETTARDELELADGRVFDRYTAPVVAEDGTRFGRLWAFRD,not soluble
